2 molecules from publication PMC9640584, “An active site loop toggles between conformations to control antibiotic hydrolysis and inhibition potency for CTX-M β-lactamase drug-resistance enzymes” (Nature Communications, 2022) can be followed below.

Common to all, as to experiment: enzyme inhibition assay (nitrocefin hydrolysis, Ki by fit to the Morrison equation); increasing concentrations of BLIP incubated with β-lactamase (0.05-0.6 nM) for 20 min, then nitrocefin added; initial velocity at 482 nm; 50 mM sodium phosphate pH 7.0, 100 μg/ml BSA
The target in assay [1] is CTX-M-15 β-lactamase, wild type (Klebsiella pneumoniae).
Assay [2] concerns the target CTX-M-14 N106S β-lactamase.
Assay [3] addresses CTX-M-15 N106S β-lactamase (Klebsiella pneumoniae).
Assay [4] has as its target CTX-M-15 G240D β-lactamase (Klebsiella pneumoniae).
The target of assay [5] is T1, CTX-M-14 β-lactamase, wild type (UniProt Q9L5C7 29-291).
T1 construct: also called CTX-M-14 wild type; source: E. coli BL21(DE3), pET28a, purified (Co2+ Talon, TEV cleavage, Ni2+ Sepharose); not shown: His6, N-terminal, cleaved
Particulars: both partners purified.

For the molecule “β-lactamase inhibitory protein (BLIP), wild type (from UniProt P35804) (natural protein)”, the Ki in assay [1] amounted to 2.9 nM; in assay [2], 2.1 nM; in assay [3], 0.35 nM; in assay [4] it was 5 nM.

B1: β-lactamase inhibitory protein (BLIP), wild type (natural protein)
chain: AGVMTGAKFTQIQFGMTRQQVLDIAGAENCETGGSFGDSIHCRGHAAGDYYAYATFGFTSAAADAKVDSKSQEKLLAPSAPTLTLAKFNQVTVGMTRAQVLATVGQGSCTTWSEYYPAYPSTAGVTLSLSCFDVDGYSSTGFYRGSAHLWFTDGVLQGKRQWDLV
notes: No removal of the His tag is described; source: E. coli RB791, plasmid pGR32, purified (Co2+ Talon column, gel filtration)
As to B1, in assay [5], the Ki turned out to be 330 nM.

By Ki is commonly meant the equilibrium dissociation constant of an inhibitor or competing ligand from its target. The low end stands for tighter binding, the high end for weaker binding.
